Tests used:
[1] = biological target: T1, huPD-L1-His (human PD-L1 with a C-terminal polyhistidine tag) (human, UniProt Q9NZQ7 19-239); experiment: SPR (Biacore), binder captured by anti-human IgG Fc, huPD-L1-His in solution, 25 C, 1:1 model
T1 construct: Bought; also called biotinylated huPD-L1-His
Experimental: (§1) The binding kinetics and affinity of exemplary fusion proteins to huPD-L1-His or huCD137-His (human PD-L1 or human CD137 with a C-terminal polyhistidine tag, R&D Systems) were determined by surface plasmon resonance (SPR) using a Biacore 8K or a Biacore T200 (GE Healthcare).
(§2) The anti-human IgG Fc antibody (GE Healthcare) was immobilized on a CM5 sensor chip using standard amine chemistry: the carboxyl groups on the chip were activated using 1-ethyl-3-(3-dimethylaminopropyl)-carbodiimide (EDC) and N-hydroxysuccinimide (NHS). Subsequently, anti-human IgG Fc antibody solution (GE Healthcare) at a concentration of 25 μg/mL in 10 mM sodium acetate (pH 5.0) was applied at a flow rate of 5 μL/min until an immobilization level of 6000-10000 resonance units (RU) was achieved. Residual non-reacted NHS-esters were blocked by passing a solution of 1M ethanolamine across the surface. The reference channel was treated in an analogous manner. […] After each capture step, the needle was washed.
(§3) Double referencing was used and the 1:1 binding model was used to fit the raw data.

[2] = biological target: T2, human CD137 expressed on cells (human, UniProt Q07011 24-255); experiment: flow cytometry, Flp-In-CHO::huCD137 cells
T2 construct: whole, on cells; also called Flp-In-CHO::huCD137; NFκB-luc2/CD137 Jurkat cells
Experimental: (§4) The geometric means of the fluorescence intensity were used to calculate EC₅₀ values using nonlinear regression (shared bottom, SLOPE=1).
(§5) 5×10⁴ cells per well were incubated for 1 h in ice-cold PBS containing 5% fetal calf serum (PBS-FCS). A dilution series of the fusion proteins and control antibodies were added to the cells and incubated for 1 h on ice. Cells were washed twice with PBS and then incubated with a goat anti-hIgG Alexa647-labeled antibody for 30 min on ice. Cells were subsequently washed and analyzed using iQue Flow cytometer (Intellicyte Screener). Mean geometric fluorescent signals were plotted and fitted with Graphpad software using nonlinear regression (shared bottom, SLOPE=1).

[3] = biological target: T3, huCD137-His (human CD137 with a C-terminal polyhistidine tag) (human, UniProt Q07011 24-186); experiment: ELISA, huCD137-His coated, detection anti-NGAL-HRP
T3 construct: Bought; also called huCD137-His-Bio
Experimental: (§6) Recombinant huPD-L1-His or cyPD-L1-His (human or cynomolgus PD-L1 with a C-terminal polyhistidine tag, R&D Systems or Sino Biologics) at the concentration of 1 μg/mL in PBS was coated overnight on microtiter plates at 4° C. After washing with PBS-0.05% T (PBS supplemented with 0.05% (v/v) Tween 20), the plates were blocked with 2% BSA (w/v) in PBS-0.1% T (PBS supplemented with 0.1% (v/v) Tween 20) for 1 h at room temperature. […] Bound molecules under study were detected by incubation with 1:5000 diluted anti-human IgG Fc-HRP (Jackson Laboratory) in PBS-0.1% T-2% BSA. After an additional wash step, fluorogenic HRP substrate (QuantaBlu, Thermo) was added to each well and the fluorescence intensity was detected using a fluorescence microplate reader.
(§7) The same ELISA setup was also employed to determine the binding potency of fusion proteins to CD137, where huCD137-His (human CD137 with C-terminal polyhistidine tag, R&D Systems) or cyCD137-Fc (cynomolgus CD137 C-terminally fused to Fc) was instead coated on a microtiter plate. The testing agents were similarly titrated and bound agents were detected via anti-NGAL-HRP.

[4] = biological target: T3, huCD137-His (human CD137 with a …); experiment: SPR (Biacore), binder captured by anti-human IgG Fc, huCD137-His in solution, 25 C, 1:1 model
Experimental: as §1, §2, §3

[5] = biological target: cyCD137-Fc (cynomolgus CD137 C-terminally fused to Fc) (cynomolgus); experiment: ELISA, cyCD137-Fc coated, detection anti-NGAL-HRP
Experimental: as §6, §7

[6] = biological target: T4, cyPD-L1-His (cynomolgus PD-L1 with a C-terminal polyhistidine tag) (cynomolgus); experiment: ELISA, cyPD-L1-His coated, detection anti-human IgG Fc-HRP
T4 construct: Bought
Experimental: as §6

[7] = biological target: T5, cynomolgus CD137 expressed on cells (cynomolgus, UniProt A9YYE7 24-254); experiment: flow cytometry, Flp-In-CHO::cynoCD137 cells
T5 construct: also called Flp-In-CHO::cynoCD137
Experimental: as §4, §5

[8] = biological target: T3, huCD137-His (human CD137 with a …); experiment: dual-binding ELISA, huCD137-His coated, binder titrated, detection with biotinylated huPD-L1-His
[9] = biological target: T6, human PD-L1 expressed on cells (human, UniProt Q9NZQ7 19-290); experiment: flow cytometry, RKO tumor cells (PD-L1-positive)
T6 construct: whole, on cells; also called Flp-In-CHO::huPDL-1; RKO cells
Experimental: as §5
For flow cytometric analysis, RKO cells were incubated with fusion proteins and detected using a fluorescently labeled anti-human IgG antibody as described in Example 6.

[10] = biological target: T7, huPD-L1-Fc (recombinant human PD-L1 Fc fusion) (human, UniProt Q9NZQ7 19-239); experiment: competitive ELISA, huPD-1-His coated, 15 nM huPD-L1-Fc tracer, binder titrated
T7 construct: Bought; also called tracer huPD-L1-Fc
Experimental: (§8) Recombinant huPD-1-His (Acrobiosystems) in PBS (1 μg/mL) was coated overnight on microtiter plates at 4° C. The plates were washed five times after each incubation step with 100 μL PBS-0.05% T (PBS supplemented with 0.05% (v/v) Tween 20). The plates were blocked with 2% BSA (w/v) in PBS-0.1% T (PBS supplemented with 0.1% (v/v) Tween 20) for 1 h at room temperature and subsequently washed again. […] The mixtures of fusion proteins and the tracer were added to the plates and incubated for 20 min at room temperature following by five washing steps with 100 μL PBS-0.05% T. Subsequently, a 1:5000 dilution of goat-anti human IgG-Fc HRP (Jackson) was added to the wells and incubated for 1 h. After an additional wash step, fluorogenic HRP substrate (QuantaBlu, Thermo) was added to each well, and the fluorescence intensity was detected using a fluorescence microplate reader.

[11] = biological target: T1, huPD-L1-His (human PD-L1 with a …); experiment: ELISA, huPD-L1-His coated, detection anti-human IgG Fc-HRP
Experimental: as §6

[12] = biological target: T6, human PD-L1 expressed on cells; experiment: flow cytometry, Flp-In-CHO::huPDL-1 cells
Experimental: as §4, §5

[13] = biological target: T1, huPD-L1-His (human PD-L1 with a …); experiment: dual-binding ELISA, huPD-L1-His coated, binder titrated, detection with biotinylated huCD137-His
Experimental: Recombinant huPD-L1-His (R&D Systems) in PBS (1 μg/mL) was coated overnight on microtiter plates at 4° C. The plates were washed five times after each incubation step with 100 μL PBS-0.05% T. The plates were blocked with 2% BSA (w/v) in PBS-0.1% T for 1 h at room temperature and subsequently washed again. Different concentrations of tested fusion proteins were added to the wells and incubated for 1 h at room temperature, followed by a wash step. […] After washing, a 1:5000 dilution of ExtrAvidin-HRP (Sigma-Aldrich) in PBS-0.1% T-2% BSA was added to the wells and incubated for 1 h. After an additional wash step, fluorogenic HRP substrate (QuantaBlu, Thermo) was added to each well, and the fluorescence intensity was detected using a fluorescence microplate reader.

[14] = biological target: T8, cynomolgus PD-L1 expressed on cells (cynomolgus); experiment: flow cytometry, Flp-In-CHO::cynoPDL-1 cells
T8 construct: whole, on cells; also called Flp-In-CHO::cynoPDL-1
Experimental: as §4, §5

[15] = biological target: T9, biotinylated huCD137-Fc (human CD137 Fc fusion) (human, UniProt Q07011 24-186, biotinylated); experiment: competitive ELISA, antibody SEQ ID NOs: 28 and 29 coated (competitor), 1 nM huCD137-Fc-bio tracer, binder titrated
T9 construct: Bought; also called huCD137-Fc-bio
Experimental: as §8, with “The” for “Recombinant huPD-1-His (Acrobiosystems) in PBS (1 μg/mL) was coated overnight on microtiter plates at 4° C. The”, “testing molecules” for “fusion proteins”, “ExtrAvidin-HRP (Sigma-Aldrich) in PBS-0.1% T-2% BSA” for “goat-anti human IgG-Fc HRP (Jackson)”
Competition data for an exemplary experiment are shown in FIG. 14, where the x-axis represents testing molecule concentration and the y-axis represents the measured trace molecule concentration. The data were fit to a 1:1 sigmoidal curve, where the IC₅₀ value and the maximum signal were free parameters, and the slope was fixed to unity.

[16] = biological target: T1, huPD-L1-His (human PD-L1 with a …); experiment: ELISA, huPD-L1-His coated, detection anti-human IgG Fc-HRP per paragraph 264; the filing does not say that this reagent detects the lipocalin mutein alone

Row | Kd [1] [nM] | koff [1] [s⁻¹] | kon [1] [M⁻¹ s⁻¹] | EC50 [2] [nM] | EC50 [3] [nM] | Kd [4] [nM] | koff [4] [s⁻¹] | kon [4] [M⁻¹ s⁻¹] | EC50 [5] [nM] | EC50 [6] [nM] | EC50 [7] [nM] | EC50 [8] [nM] | EC50 [9] [nM] | IC50 [10] [nM] | EC50 [11] [nM] | EC50 [12] [nM] | EC50 [13] [nM] | EC50 [14] [nM] | IC50 [15] [nM] | binding result [16] | Binder
1 | 0.537 | 0.000861 | 1.6e+06 | 4.69 | 0.14 | 5.73 | 0.000224 | 39100 | 0.21 | 0.17 | 3.66 | 2.3 | 0.53 | 2.8 | 0.2 | 4.09 | 0.49 | 3.37 |  |  | fusion protein SEQ ID NOs: 90 and 91 (bispecific antibody, human IgG4 S228P, kappa, F234A L235A, Antibody-lipocalin mutein fusion, IgG4 S228P backbone) heavy: not shown light: EIVLTQSPDTLSVTPKEKVTLTCRASQSIGTNIHWFQQKPGQSPKLLIKYASESISGVPSRFSGSGSGTDFTLTINSVEAEDAATYYCQQSNSWPYTFGQGTKLEIKRTVAAPSVFIFPPSDEQLKSGTASVVCLLNNFYPREAKVQWKVDNALQSGNSQESVTEQDSKDSTYSLSSTLTLSKADYEKHKVYACEVTHQGLSSPVTKSFNRGECGGGGSGGGGSGGGGSQDSTSDLIPAPPLSKVPLQQNFQDNQFHGKWYVVGQAGNIRLREDKDPIKMMATIYELKEDKSYDVTMVKFDDKKCMYDIWTFVPGSQPGEFTLGKIKSFPGHTSSLVRVVSTNYNQHAMVFFKFVFQNREEFYITLYGRTKELTSELKENFIRFSKSLGLPENHIVFPVPIDQCIDG
2 |  |  |  |  | 0.27 |  |  |  |  |  |  |  |  |  |  |  |  |  | 2.6 | no binding (tested: 100 nM) | CD137-specific lipocalin mutein SEQ ID NO: 42 (designed binder, Mutein of mature human NGAL) QDSTSDLIPAPPLSKVPLQQNFQDNQFHGKWYVVGQAGNIRLREDKDPIKMMATIYELKEDKSYDVTMVKFDDKKCMYDIWTFVPGSQPGEFTLGKIKSFPGHTSSLVRVVSTNYNQHAMVFFKFVFQNREEFYITLYGRTKELTSELKENFIRFSKSLGLPENHIVFPVPIDQCIDG

From patent US20210363257A1 (Pieris, published 2021)
